This note sets out measurements from patent US9255270B2, “Methods used in sensitizing invasive glioblastoma to therapeutic treatment” (Translational Genomics Research Institute, priority 2009, dated 2016).

Data set [1] deals with T98G and SF767 glioma cells. In words: Apoptotic assay (nuclear morphology of DAPI stained cells). The class given is cell-based, Human. Here is the method: (§1) Human astrocytoma cell lines T98G, U87, U118, SNB19 (American Type Culture Collection) and SF767 (University of California at San Francisco) were maintained in Dulbecco's modified Eagle's medium (DMEM)+10% heat inactivated fetal bovine serum (FBS) in a 37° C., 5% CO2 atmosphere. In all assays treated with TWEAK, cells were cultured in reduced serum (0.5% FBS) for 16 h prior to stimulation with recombinant TWEAK at 100 ng/ml in DMEM+0.1% BSA for the indicated times.
Apoptotic cells were evaluated by nuclear morphology of DAPI stained cells as described previously (See Reference 11). Briefly, cells with condensed, fragmented chromatin were manually scored as apoptotic cells. At least five fields (total of 1000 cells) were evaluated, and data reported as apoptotic cells/total cells×100. Verification of apoptotic cells was conducted by co-immunofluorescence staining using a monoclonal antibody against activated cleaved caspase 3. At least 1000 cells per treatment were evaluated for condensed chromatin and activated caspase 3 (See Reference 11).
TWEAK stimulation of glioma cell survival depends on Akt2 function. SiRNA specific for Akt1 (FIG. 12) and Akt2 (FIG. 13) suppress expression of Akt1 and Ak2 protein in both. T98G and SF767 glioma cells. […] After 72 hours, protein lysates were collected and analyzed by Western blotting for Akt1, Akt2 and α-tubulin. […] Cells with condensed, fragmented chromatin were manually scored as apoptotic cells. At least 10 fields (total of 1000 cells) were evaluated and data reported as apoptotic cells/total cells×100. […]
(§2) In FIGS. 18 and 19, TWEAK-induced BAD phosphorylation on serine 136 is dependent upon Akt2 function. […] Cellular lysates were collected and analyzed for phosphorylated BAD Ser-136 and total BAD by ELISA. […] After 72 hours protein lysates were collected and analyzed by Western blotting for BAD and α-tubulin. […] Cells with condensed, fragmented chromatin were manually scored as apoptotic cells. At least 10 fields (total of 1000 cells) were evaluated and data reported as apoptotic cells/total cells×100. […]

Another data set relates to Akt1. In words: Immunoprecipitation with isoform-specific antibody, immunoblot for phospho Akt-473. In kind it is cell-based, Human. Conditions: T98G cells; TWEAK 10 min. The procedure: (§3) Immunoblotting and protein determination experiments were performed as described previously (See Reference 11). In some experiments, TWEAK (100 ng/ml) was preincubated with 2.5 μg/ml soluble Fn14-Fc decoy receptor or control Fc protein at 37° C. for 15 min before adding it to cells (See Reference 26). Also, in some cases, cells were pretreated with the PI3K inhibitor LY294002 (10 μM) for 10 min prior to TWEAK addition. For immunoprecipitation, cells were lysed on ice for 10 min in a buffer containing 10 mM Tris-HCl, pH 7.4, 0.5% Nonidet P-40, 150 mM NaCl, 1 mM phenylmethylsulfonyl fluoride, 1 mM EDTA, 2 mM sodium vanadate, 10 μg/ml aprotinin, and 10 μg/ml leupeptin (Sigma). […] Samples were then resuspended in 2×SDS sample buffer and boiled in the presence of 2-mercaptoethanol (Sigma), separated by SDS-PAGE, transferred to nitrocellulose for 1 h at 4° C., and proteins were detected as described previously (See Reference 27). […]
(§4) The protein expression of Akt1 and Akt2 across five different glioma cell lines was assessed. […]
(§5) Akt1 and Akt2 are expressed in glioma cell lines and are phosphorylated in TWEAK stimulated cells. Referring now to FIG. 10: T98G, SNB19, SF767, U87, and U118 cell lysates were analyzed for endogenous levels of Akt1 and Akt2 by Western blotting. To monitor gel loading, α-tubulin protein levels were also analyzed. […]
For orientation: In western blotting, separated proteins are transferred to a membrane and probed.

The subject of a further data set is Akt2. Described as above. Conditions: T98G cells; TWEAK 10 min. In kind it is cell-based, Human. Here is the method: as §3, §4, §5
Data set [2] concerns Akt-Ser473 phosphorylation. The experiment in a line: Western blot of Akt-Ser473 phosphorylation in TWEAK-treated glioma cells. In kind it is cell-based, Human. The procedure:
as §1, §3
Referring now to FIG. 1, T98G and SF767 glioma cells were treated with TWEAK and then harvested at the indicated times. Protein lysates were analyzed by Western blotting using antibodies to Akt Ser-473, total Akt, and α-tubulin. […] Total cell lysates were collected after 10 min of TWEAK treatment and analyzed for phosphorylated Akt-473, total Akt, and α-tubulin. […] Cells were treated with TWEAK for 10 minutes and protein lysates were analyzed for phosphorylated Akt-473, total Akt, Rac1 and α-tubulin. […]

Data set [3] relates to BAD (Ser 136) phosphorylation. The experiment in a line: PhosphoBAD (Ser 136) sandwich ELISA. Also noted: species or system Human. Conditions: cell-based ELISA; glioma cells. Here is the method: Phosphorylation levels of BAD (Ser 136) were determined using a cell-based ELISA. Glioma cells were transfected with siRNA oligonucleotides against AKT1, AKT2, or non-mammalian GL2 luciferase control siRNA and incubated overnight. The cells were cultured overnight in DMEM with 0.5% FBS prior to TWEAK or control PBS addition in DMEM with 0.1% BSA for 15 min. Total cellular lysates were collected according to manufacturer's instructions utilizing the PathScan Sandwich ELISA kit (Cell Signaling). Each sample (100 μg total protein) was diluted 1:1 in sample buffer for a final volume of 200 μL prior to addition to the designated microstrip wells previously coated by the manufacturer with a BAD rabbit monoclonal capture antibody. The microstrips were then sealed and incubated overnight at 4° C. on a plate shaker. […] Stop solution was omitted and absorbance read at 600 nm (See Reference 29).
as §2

B1: TWEAK: recombinant TWEAK, TNF superfamily ligand of the Fn14 receptor, used at 100 ng/ml (protein)
chain: SAPKGRKTRARRAIAAHYEVHPRPGQDGAQAGVDGTVSGWEEARINSSSPLRYNRQIGEFIVTRAGLYYLYCQVHFDEGKAVYLKLDLLVDGVLALRCLEEFSATAASSLGPQLRLCQVSGLLALRPGSSLRIRTLPWAHLKAAPFLTYFGLFQVH
Turning to B1, in data set [1] (BAD siRNA transfected glioma cells), the “effect of TWEAK pretreatment on apoptosis by cytotoxic or chemotherapeutic agents in cells with BAD expression suppressed” value was “still protected glioma cells from apoptosis”. The “effect of TWEAK pretreatment on TMZ induced cell death” value in data set [1] (TWEAK 100 ng/ml 2 hours before TMZ 200 μM) is given as “suppressed TMZ induced cell death”. Also, the “effect of TWEAK pretreatment on cytotoxic therapy-induced apoptosis” value in data set [1] (TWEAK 100 ng/ml 2 hours before TRAIL or camptothecin, control siRNA cells) was “abrogated cytotoxic therapy-induced apoptosis”. For the same molecule, the “induction of phosphorylation of Akt1 following TWEAK treatment” value in the data set on Akt1 is listed as “two-fold induction”. Moreover, in the data set on Akt2, the “induction of phosphorylation of Akt2 following TWEAK treatment” value is “two-fold induction”. In data set [2] (TWEAK 100 ng/ml, T98G and SF767 glioma cells), the “Akt-Ser473 phosphorylation after TWEAK treatment (immunoblot of whole cellular lysates)” value is recorded as “induction of Akt-Ser473 phosphorylation”. For the same molecule, in data set [2] (TWEAK treatment, T98G and SF767), the “duration of TWEAK treatment after which Akt-Ser473 phosphorylation diminished” value is listed as “more than 1 hour”. Further, the “time after which phosphorylation of Akt-Ser473 was detected” value in data set [2] (TWEAK treatment, both T98G and SF767 cell lines) came to 5 min. Also, in data set [3], the “amount of phosphorylated BAD-Ser136 upon TWEAK stimulation” value is “increased approximately two-fold” and the “amount of total BAD upon TWEAK stimulation” value is listed as “did not change significantly”.
